How the values were obtained:
Conditions in all cases: protein: recombinant; tags: N-terminal His6; label: Cy5 (end label); fork
[1] = target: T1, Mth-Hel308 F295A (Methanothermobacter thermautotrophicus, UniProt O26901 1-690, F295A); assay: EMSA; 5 mM EDTA; 25 nM DNA; EMSA: 20 mM Tris-HCl pH 7.5, 100 ug/ml BSA, 7% glycerol, 25 mM DTT, 5 mM EDTA, 25 nM Cy5-DNA; 5% TBE gel; no added salt stated; 37 C 10 min stated for duplex DNA reactions
T1 sequence: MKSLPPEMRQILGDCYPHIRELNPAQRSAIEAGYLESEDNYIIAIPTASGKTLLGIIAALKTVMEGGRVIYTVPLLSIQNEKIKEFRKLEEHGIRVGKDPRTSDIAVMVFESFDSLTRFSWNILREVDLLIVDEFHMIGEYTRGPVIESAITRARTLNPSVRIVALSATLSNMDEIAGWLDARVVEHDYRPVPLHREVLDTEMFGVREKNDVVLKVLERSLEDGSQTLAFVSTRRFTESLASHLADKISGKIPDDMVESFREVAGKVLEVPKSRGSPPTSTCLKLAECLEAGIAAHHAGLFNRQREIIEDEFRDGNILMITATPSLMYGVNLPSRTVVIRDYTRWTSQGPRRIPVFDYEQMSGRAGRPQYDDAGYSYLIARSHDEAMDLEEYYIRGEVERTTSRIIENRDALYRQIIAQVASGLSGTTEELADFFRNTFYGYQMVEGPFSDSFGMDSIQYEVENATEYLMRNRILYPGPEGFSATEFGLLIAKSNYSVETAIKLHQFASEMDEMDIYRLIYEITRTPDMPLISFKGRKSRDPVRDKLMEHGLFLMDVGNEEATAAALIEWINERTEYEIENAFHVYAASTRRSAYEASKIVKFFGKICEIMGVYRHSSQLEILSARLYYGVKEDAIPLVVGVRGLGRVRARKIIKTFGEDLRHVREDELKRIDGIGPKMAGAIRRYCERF

[2] = target: T2, Mth-Hel308 R591A (Methanothermobacter thermautotrophicus, UniProt O26901 1-690, R591A); assay: as above
T2 sequence: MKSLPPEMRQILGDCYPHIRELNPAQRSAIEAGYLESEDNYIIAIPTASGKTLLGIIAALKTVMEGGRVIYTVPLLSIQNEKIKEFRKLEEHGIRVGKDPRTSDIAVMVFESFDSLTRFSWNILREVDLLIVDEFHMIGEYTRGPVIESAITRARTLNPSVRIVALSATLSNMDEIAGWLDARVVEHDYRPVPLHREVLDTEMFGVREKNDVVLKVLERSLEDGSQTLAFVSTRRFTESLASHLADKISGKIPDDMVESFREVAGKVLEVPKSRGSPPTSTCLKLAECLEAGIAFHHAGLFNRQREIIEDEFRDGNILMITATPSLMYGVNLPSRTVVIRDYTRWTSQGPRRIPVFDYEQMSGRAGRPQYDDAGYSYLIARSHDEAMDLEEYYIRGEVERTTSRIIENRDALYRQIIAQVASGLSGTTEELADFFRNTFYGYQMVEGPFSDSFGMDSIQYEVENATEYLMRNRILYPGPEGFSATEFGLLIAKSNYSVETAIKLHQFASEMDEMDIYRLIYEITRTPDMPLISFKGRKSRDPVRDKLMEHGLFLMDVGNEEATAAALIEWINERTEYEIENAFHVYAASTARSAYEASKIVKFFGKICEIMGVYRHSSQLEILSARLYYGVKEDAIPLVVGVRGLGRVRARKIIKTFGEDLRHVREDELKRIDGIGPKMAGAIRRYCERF

[3] = target: T3, Mth-Hel308 Y586A (Methanothermobacter thermautotrophicus, UniProt O26901 1-690, Y586A); assay: EMSA; 5 mM EDTA; 25 nM DNA; similar to wild type; EMSA: 20 mM Tris-HCl pH 7.5, 100 ug/ml BSA, 7% glycerol, 25 mM DTT, 5 mM EDTA, 25 nM Cy5-DNA; 5% TBE gel; no added salt stated; 37 C 10 min stated for duplex DNA reactions
T3 sequence: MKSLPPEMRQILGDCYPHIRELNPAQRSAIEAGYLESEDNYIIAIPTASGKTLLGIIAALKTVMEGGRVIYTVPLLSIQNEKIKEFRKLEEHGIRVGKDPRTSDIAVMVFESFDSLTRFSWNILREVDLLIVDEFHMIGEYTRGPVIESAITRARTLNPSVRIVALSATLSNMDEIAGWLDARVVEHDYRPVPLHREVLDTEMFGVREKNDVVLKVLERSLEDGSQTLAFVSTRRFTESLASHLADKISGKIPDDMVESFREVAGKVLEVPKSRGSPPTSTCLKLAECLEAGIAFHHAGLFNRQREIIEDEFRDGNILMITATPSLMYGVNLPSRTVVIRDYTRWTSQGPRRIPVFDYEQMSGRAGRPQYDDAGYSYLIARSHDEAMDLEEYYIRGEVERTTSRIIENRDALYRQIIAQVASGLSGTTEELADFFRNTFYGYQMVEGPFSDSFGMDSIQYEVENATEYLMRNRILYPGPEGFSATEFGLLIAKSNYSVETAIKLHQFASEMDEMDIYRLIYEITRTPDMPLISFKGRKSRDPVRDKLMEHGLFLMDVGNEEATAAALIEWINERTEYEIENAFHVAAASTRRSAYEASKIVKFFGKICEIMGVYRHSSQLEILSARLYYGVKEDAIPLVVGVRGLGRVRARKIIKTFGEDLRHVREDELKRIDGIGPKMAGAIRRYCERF

B1: forked DNA substrate (dsDNA)
DNA 1: GTCGGATCCTCTAGACAGCTCCATGATCACTGGCACTGGTAGAATTCGGC
DNA 2: CAACGTCATAGACGATTACATTGCTACATGGAGCTGTCTAGAGGATCCGA
With B1 the Kd [1] was 19.3 nM, the binding result [2] was “binds” and the binding result [3] was “binds”.

Reference: paper PMC10484726, “Archaeal Hel308 suppresses recombination through a catalytic switch that controls DNA annealing”
